Measured values: US20260250410A1, “ANTIBODY AND USE THEREOF” (SICHUAN HUIYU PHARMACEUTICAL CO., LTD., priority 2022, published 2026)
Where a chain is given by its changes, count along the chain named.

T1: HuCDCP1-C (Homo sapiens, UniProt Q9H5V8)
T1 construct: made in house; host or cells: HEK-293T
T1 sequence (Q9H5V8 30-667): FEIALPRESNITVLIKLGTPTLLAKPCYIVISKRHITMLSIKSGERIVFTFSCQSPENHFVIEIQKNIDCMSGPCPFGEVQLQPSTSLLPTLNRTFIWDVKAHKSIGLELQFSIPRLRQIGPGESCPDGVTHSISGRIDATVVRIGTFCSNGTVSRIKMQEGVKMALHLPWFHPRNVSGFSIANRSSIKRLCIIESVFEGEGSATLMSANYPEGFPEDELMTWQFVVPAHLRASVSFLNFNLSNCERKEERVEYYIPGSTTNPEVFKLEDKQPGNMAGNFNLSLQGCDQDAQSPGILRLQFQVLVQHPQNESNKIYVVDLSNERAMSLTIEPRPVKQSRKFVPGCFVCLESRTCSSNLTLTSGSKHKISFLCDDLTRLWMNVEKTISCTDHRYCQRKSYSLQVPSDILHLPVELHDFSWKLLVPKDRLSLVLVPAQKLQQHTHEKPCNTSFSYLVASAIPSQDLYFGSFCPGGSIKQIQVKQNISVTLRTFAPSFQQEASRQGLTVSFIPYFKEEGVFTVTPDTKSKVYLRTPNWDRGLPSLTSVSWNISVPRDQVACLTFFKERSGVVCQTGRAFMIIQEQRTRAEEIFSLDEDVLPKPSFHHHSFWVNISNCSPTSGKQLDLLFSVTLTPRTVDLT

B1: 1CP-112: humanized anti-CDCP1 antibody produced by 8E5; VH SEQ ID NO: 347, VL SEQ ID NO: 357 (antibody, V domains shown)
VH: QVQLVQSGSELKKPGASVKVSCKASGYTLTDFSMHWVRQAPGQGLEWMGWINTETGAPTYADDFKGRFVFSLDTSVSTAYLQISSLKAEDTAVYYCSRGRDYDPHFDYWGQGTLVTVSS
VL: EIVLTQSPATLSLSPGERATLSCRASQSISDFLHWYQQKPGQAPRLLIKYASQSISGIPARFSGSGPGSDFTLTISSVEPEDFAVYYCQSAHSFPYTFGQGTKLEIK
modifications: humanized antibody 8E5 heavy chain variable region 01; humanized antibody 8E5 light chain variable region 01
B2: 1CP-114: humanized anti-CDCP1 antibody produced by 8E5; VH SEQ ID NO: 349, VL SEQ ID NO: 357 (antibody, V domains shown)
VH: B1 VH with A16E, F70L, A88S
VL: B1 VL
modifications: humanized antibody 8E5 heavy chain variable region 03; humanized antibody 8E5 light chain variable region 01
B3: 1CP-113: humanized anti-CDCP1 antibody produced by 8E5; VH SEQ ID NO: 348, VL SEQ ID NO: 357 (antibody, V domains shown)
VH: B1 VH with F70L
VL: B1 VL
modifications: humanized antibody 8E5 heavy chain variable region 01; humanized antibody 8E5 light chain variable region 01
B4: 1CP-116: humanized anti-CDCP1 antibody produced by 8E5; VH SEQ ID NO: 347, VL SEQ ID NO: 358 (antibody, V domains shown)
VH: B1 VH
VL: B1 VL with A43S, P67S
modifications: humanized antibody 8E5 heavy chain variable region 01; humanized antibody 8E5 light chain variable region 02
B5: 1CP-154: humanized anti-CDCP1 antibody produced by 8C9; VH SEQ ID NO: 346, VL SEQ ID NO: 354 (antibody, V domains shown)
VH: EVQLVESGGGLVQPGRSLRLSCTTSGLTFTHYHMSWVRQPPGKAPEWVAIIRNKAYGYTTDYSASVRGRFTISRDDSKSILYLQMNSLKTEDTAVYYCVREGGYGYDGTFAYWGQGTLVTVSS
VL: DIQMTQSPSSLSASVGDRVTITCRASESVDNYGISFMNWFQQKPGQAPKLLIYAASNQGSGVPSRFSGSGSGTDFTLTISSMQPEDFATYYCQQSKEVPRTFGGGTKVEIK
modifications: humanized antibody 8C9 heavy chain variable region 04; humanized antibody 8C9 light chain variable region 01
B6: 1CP-161: humanized anti-CDCP1 antibody produced by 8C9; VH SEQ ID NO: 345, VL SEQ ID NO: 356 (antibody, V domains shown)
VH: B5 VH with P40A, A44G
VL: B5 VL with A47P, Y91F
modifications: humanized antibody 8C9 heavy chain variable region 03; humanized antibody 8C9 light chain variable region 03
B7: 1CP-162: humanized anti-CDCP1 antibody produced by 8C9; VH SEQ ID NO: 346, VL SEQ ID NO: 356 (antibody, V domains shown)
VH: B5 VH
VL: B5 VL with A47P, Y91F
modifications: humanized antibody 8C9 heavy chain variable region 04; humanized antibody 8C9 light chain variable region 03
B8: 1CP-160: humanized anti-CDCP1 antibody produced by 8C9; VH SEQ ID NO: 344, VL SEQ ID NO: 356 (antibody, V domains shown)
VH: B5 VH with P40A, A44G, P45L
VL: B5 VL with A47P, Y91F
modifications: humanized antibody 8C9 heavy chain variable region 02; humanized antibody 8C9 light chain variable region 03
B9: 1CP-156: humanized anti-CDCP1 antibody produced by 8C9; VH SEQ ID NO: 344, VL SEQ ID NO: 355 (antibody, V domains shown)
VH: B5 VH with P40A, A44G, P45L
VL: B5 VL with A47P
modifications: humanized antibody 8C9 heavy chain variable region 02; humanized antibody 8C9 light chain variable region 02
B10: 1CP-155: humanized anti-CDCP1 antibody produced by 8C9; VH SEQ ID NO: 343, VL SEQ ID NO: 355 (antibody, V domains shown)
VH: B5 VH with T24A, V37F, P40A, A44G, P45L
VL: B5 VL with A47P
modifications: humanized antibody 8C9 heavy chain variable region 01; humanized antibody 8C9 light chain variable region 02
B11: 1CP-159: humanized anti-CDCP1 antibody produced by 8C9; VH SEQ ID NO: 343, VL SEQ ID NO: 356 (antibody, V domains shown)
VH: B5 VH with T24A, V37F, P40A, A44G, P45L
VL: B5 VL with A47P, Y91F
modifications: humanized antibody 8C9 heavy chain variable region 01; humanized antibody 8C9 light chain variable region 03
B12: 1CP-158: humanized anti-CDCP1 antibody produced by 8C9; VH SEQ ID NO: 346, VL SEQ ID NO: 355 (antibody, V domains shown)
VH: B5 VH
VL: B5 VL with A47P
modifications: humanized antibody 8C9 heavy chain variable region 04; humanized antibody 8C9 light chain variable region 02

The molecules below were run against T1, HuCDCP1-C (assay: Caterra affinity of humanized anti-CDCP1 antibodies). Settings: HuCDCP1-C 2 μg/ml immobilized.
Assay type: binding
Description: The humanized anti-CDCP1 antibodies obtained from Example 11 were subjected to gene cloning, constructed into pTT5 expression vector for a small amount of expression in CHO cells (Expi-CHOS: Gibco A29127), and purified with an Fc affinity column (AT Protein A Diamond Plus. No. AA402312). Antibody purity was analyzed by HPLC and determined by Nanodrop. High-throughput affinity assay was carried out for a small amount of antibodies by Caterra.
B1 was tested, and the “ka” value was 136000 M⁻¹ s⁻¹ and the “kd” value was 5e-05 s⁻¹.
With B2 the “ka” value was 161000 M⁻¹ s⁻¹ and the “kd” value was 0.00246 s⁻¹.
In the case of B3, the “ka” value is reported as 143000 M⁻¹ s⁻¹ and the “kd” value is reported as 5.9e-05 s⁻¹.
With B4 the “ka” value was 128000 M⁻¹ s⁻¹ and the “kd” value was 4.59e-05 s⁻¹.
With B5 the “ka” value was 118000 M⁻¹ s⁻¹ and the “kd” value was 0.000346 s⁻¹.
For B6, the “ka” value was 114000 M⁻¹ s⁻¹ and the “kd” value was 0.000365 s⁻¹.
B7 was tested, and the “ka” value was 113000 M⁻¹ s⁻¹ and the “kd” value was 0.000305 s⁻¹.
B8 was tested, and the “ka” value was 110000 M⁻¹ s⁻¹ and the “kd” value was 0.00042 s⁻¹.
For B9, the “ka” value was 123000 M⁻¹ s⁻¹ and the “kd” value was 0.000441 s⁻¹.
B10 was tested, and the “ka” value was 15800 M⁻¹ s⁻¹ and the “kd” value was 0.000579 s⁻¹.
In the case of B11, the “ka” value is reported as 18000 M⁻¹ s⁻¹ and the “kd” value is reported as 0.000767 s⁻¹.
For B12, the “ka” value was 109000 M⁻¹ s⁻¹ and the “kd” value was 0.000321 s⁻¹.
